Results on seven molecules are retold here after US20240343803A1 (SHANDONG SIMCERE BIOPHARMACEUTICAL, published 2024).

For orientation: EC50 means the concentration needed to bring the measured effect to its halfway point. In general, Kd refers to the concentration at which binding is half-saturated. A word on the koff: it is the first-order rate constant of dissociation. A word on the kon: it is the rate constant with which the complex forms. As usually defined, the IC50 is the concentration at which inhibition is half-maximal.

The labels stand for the following.
T1: Full-length human TIGIT on CHO-K1 cells (CHO-K1 human TIGIT) (human, UniProt Q495A1 22-244)
T1 construct: NCBI XP_024309156.1; the entry includes the signal peptide (limits not recoverable); The strain (high, medium, low) is named under assay; also called high expression strain 1D2; medium expression strain 2D10
T1 sequence: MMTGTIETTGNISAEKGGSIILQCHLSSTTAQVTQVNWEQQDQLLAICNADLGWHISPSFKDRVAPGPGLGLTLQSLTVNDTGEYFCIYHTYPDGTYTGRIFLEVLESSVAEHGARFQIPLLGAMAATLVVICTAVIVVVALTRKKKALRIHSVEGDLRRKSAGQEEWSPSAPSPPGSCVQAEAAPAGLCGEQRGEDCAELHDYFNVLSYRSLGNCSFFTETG

T2: human PVRIG-his (AcroBiosystems, Cat NO. PVG-H52H4) (human, UniProt Q6DKI7 41-171, limits assumed)
T2 construct: also called human PVRIG protein
T2 sequence (looked up): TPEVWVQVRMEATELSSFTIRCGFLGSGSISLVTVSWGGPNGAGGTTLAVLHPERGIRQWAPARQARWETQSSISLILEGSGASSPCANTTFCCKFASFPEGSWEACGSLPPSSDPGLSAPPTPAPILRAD

T3: Fusion protein of extracellular domain of human TIGIT and His-tag (human TIGIT ECD-his) (human)
T3 chain: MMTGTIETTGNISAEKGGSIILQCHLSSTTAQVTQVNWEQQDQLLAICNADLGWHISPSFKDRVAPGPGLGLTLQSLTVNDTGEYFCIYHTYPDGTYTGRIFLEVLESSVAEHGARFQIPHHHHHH

T4: Fusion protein of extracellular domain of human TIGIT and mouse IgG2a Fc fragment (human TIGIT ECD-mFc) (human)
T4 construct: The entry includes the signal peptide (limits not recoverable) and the mouse IgG2a Fc
T4 chain: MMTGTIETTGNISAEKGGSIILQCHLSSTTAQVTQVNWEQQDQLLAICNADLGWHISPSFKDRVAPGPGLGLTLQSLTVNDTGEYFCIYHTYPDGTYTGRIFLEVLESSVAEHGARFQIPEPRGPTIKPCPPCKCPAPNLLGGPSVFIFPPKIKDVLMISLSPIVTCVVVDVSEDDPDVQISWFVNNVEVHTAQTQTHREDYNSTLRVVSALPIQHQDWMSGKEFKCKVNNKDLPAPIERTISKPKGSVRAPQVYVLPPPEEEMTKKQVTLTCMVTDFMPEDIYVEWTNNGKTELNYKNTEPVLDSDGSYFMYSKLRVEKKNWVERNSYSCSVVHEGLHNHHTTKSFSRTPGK

B1: TIGIT-002-H4L3 (antibody, V domains shown)
VH: EVQLQESGPGLVKPSETLSLTCAVSGYSITSDSWNWIRQPPGKKLEYIGYISYSGNTYYNPSLKSRVTISRDTSKNQFSLKLSSVTAADTAVYYCARLDFSNYGGAVDYWGQGTTVTVSS
VL: DIVMTQSPDSLAVSLGERATINCKASQNVRTAVAWYQQKPGQSPKLMIYSASYRYTGVPDRFSGSGSGTDFTLTISSLQAEDVAVYYCQQYYTTPWTFGGGTKVEIK
notes: Humanized anti-TIGIT antibody
B2: TIGIT-006-H5L3 (antibody, V domains shown)
VH: B1 VH with I29M, S33Y, N56R, L98G, F100Y, V107M, D108Y, Y109D
VL: DIVMTQSPDSLAVSLGERATINCRASQGVSTTIAWYQQKPGQSPKLLIYSASYRYTGVPRFSGSGSGTDFTLTISSLQAEDVAVYYCQQYYSSPFTFGGGTKVEIK
notes: Humanized anti-TIGIT antibody
B3: TIGIT-005-H2L1d (antibody, V domains shown)
VH: EVQLVQSGAEVKKPGASVKVSCKASGYAFTNYLIEWVRQAPGQRLEWMGVINPGSGGTNYKEKFKGRVTITADKSSSTAYMELSSLRSEDTAVYYCARGEYFFFDYWGQGTTVTVSS
VL: B1 VL with N28H, R30S, T31N, Q38H, M47L, Y91H, T93N, W96H
notes: Humanized anti-TIGIT antibody with NG-site mutation in VL
B4: TIGIT-070-H1L1 (antibody, V domains shown)
VH: EVQLVQSGAEVKKPGASVKVSCKASGYTFTNYYMHWVRQAPGQRLEWMGRIDPDSGGSKYNEKFKSRVTITVDKSASTAYMELSSLRSEDTAVYYCAREGHYGFYSDYWGQGTTVTVSS
VL: DIQMTQSPSSLSASVGDRVTITCRVSENIYSYLAWYQQKPGKSPKLLIYNAKTLAEGVPSRFSGSGSGTDFTLTISSLQPEDFATYYCQHHYGNPLTFGPGTKVDIK
notes: Humanized anti-TIGIT antibody
B5: PVRIG-A105 (Fc fusion)
chain: EVQLVESGGGLVQAGGSLRLSCAASGRTFDRHTMTWFRQAPGKEREFVATASRIPGDTYYSHSVKGRFTISRDNAKNTVYLQLNNLKPEDTAVYYCAATSAYCSEVDCYEKGSWYDNWGQGIQVTVSS
notes: heavy chain antibody VHH-hinge-CH2-CH3, human IgG1 constant part; not shown: human IgG1 hinge-CH2-CH3
B6: PVRIG-A50 (Fc fusion)
chain: EVQLVESGGGLVQPGGSLRLSCAASGFTFSYYDMSWVRQAPGKGLEWVSTINSNGGRTSYVDSVKGRFTISRDNTKNTLYLQMNSLKPEDTAVYYCVEGDPHNFGLENLSLRDFGSWGQGTQVTVSS
notes: heavy chain antibody VHH-hinge-CH2-CH3, human IgG1 constant part; also called PVRIG-50; not shown: human IgG1 hinge-CH2-CH3
B7: PVRIG-A118 (Fc fusion)
chain: QVQLVESGGGLVQAGGSLRLSCAASETYFDLYVMGWYRQAPGKDRELVATITYTGSIKIVDSVKDRFTISRGDAKNTVSLQMSSLKPEDTAVYFCNADPSGLGRKVYWGQGTQVTVSS
notes: as for B5

Positions count from the first letter of the chain named.

For the first assay, the target named is T1, Full-length human TIGIT on CHO-K1 cells …. Kind of assay: FACS; CHO-K1 human TIGIT medium expression strain. Summed up: (§1)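 Binding to CHO-K1 cells expressing full-length human or cynomolgus monkey TIGIT, measured by flow cytometry. Cells at 2×10⁵/50 μL in 1% BSA-PBS were mixed 1:1 with antibodies serially diluted 3-fold over 12 points from 80 nM and held at 4° C for 60 min. EC50 came from the binding curves.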
For orientation: A flow cytometer gives signals particle by particle.
Consider B1, for which the 50% effective concentration (EC50) stood at 0.228 nM.

B2: a half-maximal effect (EC50) was put at 0.396 nM.

On to B3, for which a half-maximal effect (EC50) was put at 0.285 nM.

The molecule B4 gave an EC50 of 0.45 nM.

For a further assay, the target named is T2, human PVRIG-his (AcroBiosystems, Cat …). Briefly: SPR (BIAcore), antibody captured on Protein A chip, human PVRIG-His analyte. Here is the method:
Biacore was used to detect the specific binding between anti-PVRIG antibody and human PVRIG protein. Protein A chip was used in the BIAcore assay. The time required for the chip to capture the diluted antibody and saturate the binding antigen to reach Rₘₐₓ (Maximum binding capacity, 50 RU) was measured by manual run. […] The affinity of antibody for antigen was measured by multi-cycle kinetics. In each cycle, the antibodies were injected prior to the injection of gradient concentraions of PVRIG proteins allowing the occurrence of antibody-antigen association and dissociation After each cycle, the Protein A chip was regenerated by Glycine, pH 1.5 (to remove the proteins on the chip). The affinity of antibody for antigen was calculated by BIAcore T200 analysis software.
For B5, the equilibrium dissociation constant (Kd) was 0.841 nM, the koff came out at 0.000443 s⁻¹ and the on-rate constant (kon) was determined as 527000 M⁻¹ s⁻¹.

As for B6, the Kd came to 0.0254 nM, the koff stood at 1.29e-05 s⁻¹ and the kon turned out to be 507000 M⁻¹ s⁻¹.

Turning to B7, binding was characterised by a dissociation constant (Kd) of 0.48 nM, the koff amounted to 0.00114 s⁻¹ and the on-rate (kon) turned out to be 2.38e+06 M⁻¹ s⁻¹.

A further assay deals with T3, Fusion protein of extracellular domain …. Briefly: BIAcore. For orientation: SPR reads the build-up and loss of mass on a sensor chip optically.
Take B1: the Kd is 0.0994 nM, the dissociation rate constant (koff) came out at 0.000293 s⁻¹ and the kon amounted to 2.95e+06 M⁻¹ s⁻¹.

B2 registered a Kd of 0.115 nM, a koff of 0.000183 s⁻¹ and an on-rate (kon) of 1.6e+06 M⁻¹ s⁻¹.

On to B3, for which the dissociation constant (Kd) was 0.0852 nM, the koff was 0.000257 s⁻¹ and the kon came to 3.02e+06 M⁻¹ s⁻¹.

Take B4: the affinity, expressed as Kd, was 0.251 nM; the koff was 0.000219 s⁻¹; the on-rate (kon) is 875000 M⁻¹ s⁻¹.

Another assay has as its target T1, Full-length human TIGIT on CHO-K1 cells …. Kind of assay: cell binding, CHO-K1 human TIGIT high expression strain. Summed up:
(§2)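 Binding was measured by flow cytometry after a 60-minute, 4° C incubation of the antibodies with 2×10⁵ CHO-K1 cells displaying full-length human or cynomolgus monkey TIGIT. Antibody titration: 12 points, threefold serial dilution from 80 nM, in 1% BSA-PBS.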
Consider B1, for which the concentration giving a half-maximal response (EC50) was found to be 0.0249 nM.

Take B2: the response was half-maximal at 0.022 nM (EC50).

For B3, the midpoint of the response, the EC50, lay at 0.0439 nM.

Consider B4, for which the EC50 amounted to 0.026 nM.

The next assay shares this target. Kind of assay: FACS; CHO-K1 human TIGIT low expression strain. In a few lines:
as §1
In turn, B1 yielded an EC50 of 0.17 nM.

B2 displayed a concentration giving a half-maximal response (EC50) of 0.268 nM.

B3 displayed an EC50 of 0.186 nM.

The molecule B4 registered a half-maximal effective concentration (EC50) of 0.305 nM.

For the next assay the target is unchanged. Briefly: FACS; CHO-K1 human TIGIT high expression strain. Summed up:
as §1
B1 returned a concentration for a half-maximal effect (EC50) of 0.297 nM.

The molecule B2 registered an EC50 of 0.443 nM.

As to B3, the response was half-maximal at 0.321 nM (EC50).

Molecule B4 returned a half-maximal effective concentration (EC50) of 0.494 nM.

For a further assay, the target named is T5, Full-length cynomolgus monkey TIGIT on CHO-K1 cells (CHO-K1 cynomolgus monkey TIGIT) (cynomolgus monkey).
T5 construct: NCBI XP_015300911.1
T5 sequence (chain, as listed by the source limits assumed): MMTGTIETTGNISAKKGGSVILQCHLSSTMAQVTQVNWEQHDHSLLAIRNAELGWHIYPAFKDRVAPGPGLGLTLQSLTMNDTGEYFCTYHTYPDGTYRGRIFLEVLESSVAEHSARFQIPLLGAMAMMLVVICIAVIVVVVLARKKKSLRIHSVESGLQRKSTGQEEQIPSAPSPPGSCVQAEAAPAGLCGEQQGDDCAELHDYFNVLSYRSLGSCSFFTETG
Kind of assay: cell binding, CHO-K1 cynomolgus monkey TIGIT. In a few lines: as §2
In the case of B1, the EC50 was determined as 0.0473 nM.

With B2, the EC50 amounted to 0.0578 nM.

The molecule B3 returned an EC50 of 0.0566 nM.

As to B4, a half-maximal effect (EC50) was put at 0.0596 nM.

Another assay deals with T4, Fusion protein of extracellular domain …. Kind of assay: FACS; blocking of TIGIT ECD-mFc binding to CHO-K1 CD155 cells.
B1 returned an IC50 of 0.492 nM.

For B2, the IC50 worked out at 0.458 nM.

B3 came in with an IC50 of 0.467 nM.

As for B4, the 50% inhibitory concentration (IC50) was 0.456 nM.
